Laboratory results: patent publication US20150037343A1
Changes are numbered by the printed parent chain. Blank lines part the entries; values can stand above or below the binder they belong to.

Biological target: FLAG-tagged Ang2 mutant A449 (alanine) (human) (UniProt O15123)
Assay: ELISA, scFv coated, FLAG-tagged mutant Ang2, anti-FLAG-HRP

Chain of UniProt O15123 (O15123 other isoform, or with tags, fused parts or gaps mutant): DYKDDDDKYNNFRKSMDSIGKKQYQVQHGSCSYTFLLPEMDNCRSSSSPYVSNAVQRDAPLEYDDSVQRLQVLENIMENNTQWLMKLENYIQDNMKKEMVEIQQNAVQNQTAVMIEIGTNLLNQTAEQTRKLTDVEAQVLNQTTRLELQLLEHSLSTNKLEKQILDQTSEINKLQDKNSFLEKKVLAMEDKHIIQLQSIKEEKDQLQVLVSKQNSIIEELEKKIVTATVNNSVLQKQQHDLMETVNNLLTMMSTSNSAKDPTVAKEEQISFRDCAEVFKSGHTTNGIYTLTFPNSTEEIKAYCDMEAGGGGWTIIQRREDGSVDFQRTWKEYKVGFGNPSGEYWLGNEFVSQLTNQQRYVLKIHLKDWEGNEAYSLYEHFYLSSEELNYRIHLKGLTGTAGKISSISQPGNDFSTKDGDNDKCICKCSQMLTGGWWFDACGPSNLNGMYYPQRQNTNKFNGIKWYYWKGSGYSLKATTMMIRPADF

Relative binding (%) with Mutant Ang2 compared to the binding with native Ang2: 3.3%
B1: SAIT-ANG2-AB-2-E6 (scFv form) (scFv, V domains shown)
VH: EVQLLESGGGLVQTGGSLRLSCAASGFTFSDYAMSWVRQAPGKGLEWVSAIYPDSGNKYYADSVKGRFTISRDNSKNTLYLQMNSLRAEDTAVYYCARHSSDPKVKSGYYDDGMDVWGQGTLVAVSS
VL: QSVLTQPPSASGTPGQRVTISCSGSSSNIGNNAVNWYQQLPGTAPKLLIYADSNRPSGVPDRFSGSKSGTSASLAISGLRSEDEADYYCGSWDYSLSGYVFGGGTKLTVLG

Relative binding (%) with Mutant Ang2 compared to the binding with native Ang2: 14%
B2: SAIT-ANG2-AB-4-F5 (scFv form) (scFv, V domains shown)
VH: EVQLLESGGGLVQPGGSLRLSCAASGFTFSDYDMSWVRQAPGKGLEWVSSISHGDSNKYYADSVKGRFTISRDNSKNTLYLQMNSLRAEDTAVYYCAKSSGIQESPPTYYYYGMDVWGQGTLVTVSS
VL: B1 VL with N31S

Relative binding (%) with Mutant Ang2 compared to the binding with native Ang2: 16.7%
B3: SAIT-ANG2-AB-4-F11 (scFv form) (scFv, V domains shown)
VH: EVQLLESGGGLVQTGGSLRLSCAASGFTFSDYAMSWVRQAPGKGLEWVSSIYPDDGNTYYADSVKGRFTISRDNSKNTLYLQMNSLRAEDTAVYYCAKHPVRLNLHPMYYYYGMDVWGQGTLVTVSS
VL: B1 VL with S23T, N35S, A51S, N54Q, G90A, S91T, G98A

Relative binding (%) with Mutant Ang2 compared to the binding with native Ang2: 14.5%
B4: SAIT-ANG2-AB-7-C9 (scFv form) (scFv, V domains shown)
VH: EVQLLESGGGLVQPGGSLRLSCAASGFTFSNYAMSWVRQAPGKGLEWVSAISSGGGNIYYADSVKGRFTISRDNSKNTLYLQMNSLRAEDTAVYYCAKSGIQPSPPSMSSAYAMDVWGQGTLVTVSS
VL: B1 VL with A33D, N35Y, D52N, N54H, S91T

Relative binding (%) with Mutant Ang2 compared to the binding with native Ang2: 101%
B5: SAIT-ANG2-AB-3-D3 (scFv form) (scFv, V domains shown)
VH: EVQLLESGGGLVQPGGSLRLSCAASGFTFSDYDMSWVRQAPGKGLEWVSGISSDDGNTYYADSVKGRFTISRDNSKNTLYLQMNSLRAEDTAVYYCARPTIDKYTLRGYYSYGMDVWGQGTLVTVSS
VL: B1 VL with S23T, N31S, A33Y, N35S, A51S, S53N, N54K, S91T, Y94D, S97N

Relative binding (%) with Mutant Ang2 compared to the binding with native Ang2: 4.8%
B6: SAIT-ANG2-AB-4-C11 (scFv form) (scFv, V domains shown)
VH: EVQLLESGGGLVQPGGSLRLSCAASGFTFSDYAMSWVRQAPGKGLEWVSSIYPDDGNTYYADSVKGRFTISRDNSKNTLYLQMNSLRAEDTAVYYCARHTSHHTSIDGYYYYGMDGWGQGTLVTVSS
VL: B1 VL with S23T, A33D, N35S, A51S, N54K
